From patent publication US20220151976A1 (UNIVERSITY OF TOLEDO, published 2022)

Tests used:
[1] = target: eIF4E, endogenous in 231S cells (human) (UniProt P06730); assay: m7GTP pulldown from 231S lysate after CXCL12, LASP1/eIF4E densitometry against 0 min; association may be through the complex
[2] = target: T1, Eukaryotic initiation factor 4B (eIF4B), endogenous in 231S cells (human, UniProt P23588 1-611); assay: reciprocal co-immunoprecipitation (LASP1 IP, eIF4B blot) from 231S lysate, densitometry against 0 min
T1 construct: Endogenous protein in lysate
Protocol: (§1) 1 mg of total protein lysate was employed in all immunoprecipitation reactions. eIF4B was immunoprecipitated by using 2 μg of eIF4B antibody (Cell Signaling Technology, Danvers, Mass., Cat. No. 13088). Mouse (G3A1) mAb IgG1 Isotype Control (Cell Signaling Technology, Danvers, Mass., Cat. No. 5415) served as the mock control. Next, eIF4A was immunoprecipitated using 2 μg of eIF4A1 antibody (Cohesion Biosciences, London, Purley, Cat. No. CQA1180). His-Tag (D3L10) XP® Rabbit mAb (Cell Signaling Technology, Danvers, Mass., Cat. No. 12698) was employed for the mock condition. […] As in the eIF4B Co-IP, mouse (G3A1) IgG1 isotype mAb was employed as the mock control. Prior to immunoprecipitation, lysates were pre-cleared with 20 μL of PureProteome™ Protein G Magnetic Beads (Millipore, Billerica, Mass., Cat. No. LSKMAGG10) for 2 H at 4° C. Immunoprecipitation reactions were then allowed to proceed with 20 μL of protein G magnetic beads and the appropriate amount of antibody for 2 h at 4° C. Beads were washed thrice with Co-IP buffer. To avoid heavy chain contamination (55 kDa) in the eIF4A Co-IP, antibodies were cross-linked using BS³ (according to Millipore recommendations). Proteins of interest were analyzed by sodium dodecyl sulfate-polyacrylamide gel electrophoresis (SDS-PAGE) and Western blotting.

[3] = target: T2, Eukaryotic initiation factor 4A (eIF4A1), endogenous in 231S cells (human, UniProt P60842 2-406); assay: reciprocal co-immunoprecipitation (LASP1 IP, eIF4A blot) from 231S lysate, densitometry against 0 min
T2 construct: Endogenous intracellular protein; eIF4A1 antibody (Cohesion CQA1180) used in PLA and IP, eIF4A C32B4 in Western blots
Protocol: as §1

[4] = target: T2, Eukaryotic initiation factor 4A …; assay: proximity ligation assay in 231S cells, CXCL12 5 min against unstimulated
Protocol: 100 nM AMD3465 was added 30 min prior to stimulation. […] Representative images of the PLA experiment are provided. Quantification indicates the average number of interactions/cell across multiple independent fields.

T2 sequence (P60842 2-406 limits assumed): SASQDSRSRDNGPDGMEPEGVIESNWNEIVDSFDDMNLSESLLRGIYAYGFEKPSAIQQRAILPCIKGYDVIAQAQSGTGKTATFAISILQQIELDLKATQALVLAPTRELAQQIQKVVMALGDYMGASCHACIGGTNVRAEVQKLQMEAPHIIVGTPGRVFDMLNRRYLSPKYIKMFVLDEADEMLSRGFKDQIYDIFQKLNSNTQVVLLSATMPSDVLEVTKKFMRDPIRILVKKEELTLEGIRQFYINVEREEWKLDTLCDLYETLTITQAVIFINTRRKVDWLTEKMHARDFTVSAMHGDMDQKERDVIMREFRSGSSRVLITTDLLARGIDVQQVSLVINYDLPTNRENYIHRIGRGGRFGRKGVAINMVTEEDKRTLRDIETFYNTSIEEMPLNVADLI
Chain of eIF4E, endogenous in 231S cells (human) (P06730 2-217 limits assumed): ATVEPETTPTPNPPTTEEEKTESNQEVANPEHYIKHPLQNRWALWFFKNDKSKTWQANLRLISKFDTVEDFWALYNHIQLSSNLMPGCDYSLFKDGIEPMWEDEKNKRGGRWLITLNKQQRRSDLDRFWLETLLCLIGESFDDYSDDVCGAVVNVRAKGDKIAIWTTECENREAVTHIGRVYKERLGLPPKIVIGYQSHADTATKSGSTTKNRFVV
T1 sequence (P23588 whole entry): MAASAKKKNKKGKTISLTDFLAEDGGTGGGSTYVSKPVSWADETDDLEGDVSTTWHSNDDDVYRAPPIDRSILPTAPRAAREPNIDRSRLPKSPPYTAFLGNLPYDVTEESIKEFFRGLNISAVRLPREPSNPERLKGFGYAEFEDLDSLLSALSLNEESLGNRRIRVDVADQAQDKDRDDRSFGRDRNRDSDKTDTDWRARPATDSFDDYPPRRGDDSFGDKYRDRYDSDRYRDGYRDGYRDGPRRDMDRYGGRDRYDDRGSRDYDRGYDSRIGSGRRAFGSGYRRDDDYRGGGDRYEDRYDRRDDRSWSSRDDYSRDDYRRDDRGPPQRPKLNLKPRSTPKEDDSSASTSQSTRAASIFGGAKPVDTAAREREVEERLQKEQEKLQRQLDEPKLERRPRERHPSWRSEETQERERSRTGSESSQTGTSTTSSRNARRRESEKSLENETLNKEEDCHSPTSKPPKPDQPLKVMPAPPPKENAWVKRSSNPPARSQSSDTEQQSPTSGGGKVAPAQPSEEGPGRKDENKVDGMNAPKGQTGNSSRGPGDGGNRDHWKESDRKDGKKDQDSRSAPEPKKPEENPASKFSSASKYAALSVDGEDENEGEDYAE

fold increase in association [1]: 2.2 fold
fold increase in association [2]: 7.5 fold
fold increase in association [3]: 19.1 fold
fold stimulation of the interaction [4]: 3 fold
B1: LIM and SH3 Protein 1 (LASP1), endogenous in 231S cells (other, human, UniProt Q14847 1-261, looked up)
chain: MNPNCARCGKIVYPTEKVNCLDKFWHKACFHCETCKMTLNMKNYKGYEKKPYCNAHYPKQSFTMVADTPENLRLKQQSELQSQVRYKEEFEKNKGKGFSVVADTPELQRIKKTQDQISNIKYHEEFEKSRMGPSGGEGMEPERRDSQDGSSYRRPLEQQQPHHIPTSAPVYQQPQQQPVAQSYGGYKEPAAPVSIQRSAPGGGGKRYRAVYDYSAADEDEVSFQDGDTIVNVQQIDDGWMYGTVERTGDTGMLPANYVEAI
notes: Endogenous intracellular protein; detected or immunoprecipitated with mouse LASP1 antibody 8C6 (Biolegend 909301); also called endogenous LASP1
